Assay results taken from the supplement of paper PMC7877785.
± gives the uncertainty stated by the source.

Experiment: self-splicing fitness, log relative to wild type (ln ratio); higher = more splicing; Tetrahymena group I intron in knt gene, E. coli kanamycin selection, DiMSum; sequences stand for … in CUCUCU…GGAGGGAAAAGUUAUCAGGCAUGCACCUGGUAGCUAGUCUUUAAACCAAUAGAUUGCAUCGGUUUAAAAGGCAAGACCGUCAAAUUGCGGGAAAGGGGUCAACAGCCGUUCAGUACCAAGUCUCAGGGGAAACUUUGAGAUGGCCUUGCAAAGGGUAUGGUAAUAAGCUGACGGACAUGGUCCUAACCACGCAGCCAAGUCCUAAGUCAACAGAUCUUCUGUUGAUAUGGAUGCAGUUCACAGACUAAAUGUCGGUCGGGGAAGAUGUAUUCUUCUCAUAAGAUAUAGUCGGACCUCUCCUUAAUGGGAGCUAGCGGAUGAAGUGAUGCAACACUGGAGCCGCUGGGAACUAAUUUGUAUGCGAAAGUAUAUUGAUUAGUUUUGGAGUACUCGUGGUCG
In short: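 Library with all eight P1ex-region intron nucleotides randomised, intron inside the knt kanamycin-resistance gene on pET-22b(+), in E. coli BL21(DE3). Cells grew overnight at 37°C or 30°C on LB agar with or without 25 μg/mL kanamycin (plus 100 μg/mL carbenicillin, 50 μM IPTG, 0.2% rhamnose), in six replicate transformations. Pooled colonies were amplicon-sequenced on Illumina HiSeq 2500. DiMSum fitness is the error-weighted combination of wild-type-normalised replicate fold changes, kanamycin versus none.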

GCCAAGCAAUAUUACGCAGC
self-splicing fitness (ln) (30 °C): -2.96 ± 0.2
self-splicing fitness (ln) (37 °C): -2.53 ± 0.25

UACCAGCAAUAUUACGUGCU
self-splicing fitness (ln) (30 °C): -4.3 ± 0.19
self-splicing fitness (ln) (37 °C): -2.93 ± 0.17

UGGGAGCAAUAUUACGGGUU
self-splicing fitness (ln) (37 °C): -2.02 ± 0.47

UCAGAGCAAUAUUACGCUUU
self-splicing fitness (ln) (30 °C): -2.7 ± 0.32
self-splicing fitness (ln) (37 °C): -2.84 ± 0.48

GUUAAGCAAUAUUACGUCCU
self-splicing fitness (ln) (30 °C): -0.303 ± 0.081
self-splicing fitness (ln) (37 °C): 0.0564 ± 0.083

CCAAAGCAAUAUUACGACUU
self-splicing fitness (ln) (30 °C): -3.77 ± 0.16
self-splicing fitness (ln) (37 °C): -3.01 ± 0.2

AGGAAGCAAUAUUACGAGGU
self-splicing fitness (ln) (30 °C): -3.85 ± 0.34
self-splicing fitness (ln) (37 °C): -2.97 ± 0.24

GCAGAGCAAUAUUACGUACC
self-splicing fitness (ln) (30 °C): -1.95 ± 0.17
self-splicing fitness (ln) (37 °C): -0.941 ± 0.19

AUGCAGCAAUAUUACGAACG
self-splicing fitness (ln) (30 °C): -1.7 ± 0.16
self-splicing fitness (ln) (37 °C): -0.0769 ± 0.12

GUACAGCAAUAUUACGCCAC
self-splicing fitness (ln) (30 °C): -1.49 ± 0.39

UAGGAGCAAUAUUACGUACC
self-splicing fitness (ln) (30 °C): -2.66 ± 0.32
self-splicing fitness (ln) (37 °C): -2.69 ± 0.43

CUUAAGCAAUAUUACGUAGG
self-splicing fitness (ln) (30 °C): -2.58 ± 0.1
self-splicing fitness (ln) (37 °C): -1.35 ± 0.14

CAGCAGCAAUAUUACGAUAU
self-splicing fitness (ln) (30 °C): -3.29 ± 0.24
self-splicing fitness (ln) (37 °C): -2.3 ± 0.19

UGCUAGCAAUAUUACGUUAG
self-splicing fitness (ln) (30 °C): -3.08 ± 0.19
self-splicing fitness (ln) (37 °C): -3.02 ± 0.33

GGAAAGCAAUAUUACGUGGG
self-splicing fitness (ln) (30 °C): -3.72 ± 0.19
self-splicing fitness (ln) (37 °C): -1.47 ± 0.11

UCUCAGCAAUAUUACGACAA
self-splicing fitness (ln) (30 °C): -1.98 ± 0.25
self-splicing fitness (ln) (37 °C): -1.31 ± 0.27

AUUGAGCAAUAUUACGGGUG
self-splicing fitness (ln) (30 °C): -4.2 ± 0.28
self-splicing fitness (ln) (37 °C): -2.2 ± 0.3

GGACAGCAAUAUUACGACAU
self-splicing fitness (ln) (30 °C): -0.378 ± 0.012
self-splicing fitness (ln) (37 °C): -0.0143 ± 0.032

GAUUAGCAAUAUUACGCCCG
self-splicing fitness (ln) (30 °C): 0.359 ± 0.24

AUCGAGCAAUAUUACGGAUC
self-splicing fitness (ln) (30 °C): -3.66 ± 0.41
self-splicing fitness (ln) (37 °C): -1.38 ± 0.32

AAGGAGCAAUAUUACGCUGU
self-splicing fitness (ln) (30 °C): -2.59 ± 0.22
self-splicing fitness (ln) (37 °C): -1.64 ± 0.23

CAGGAGCAAUAUUACGCAAA
self-splicing fitness (ln) (30 °C): -4.2 ± 0.46

AAGGAGCAAUAUUACGCCCG
self-splicing fitness (ln) (30 °C): -1.88 ± 0.17
self-splicing fitness (ln) (37 °C): -1.01 ± 0.22

CACCAGCAAUAUUACGAGGG
self-splicing fitness (ln) (30 °C): -2.81 ± 0.088
self-splicing fitness (ln) (37 °C): -1.79 ± 0.093

CUUGAGCAAUAUUACGCGAG
self-splicing fitness (ln) (30 °C): -3.64 ± 0.16
self-splicing fitness (ln) (37 °C): -2.82 ± 0.23

AGGGAGCAAUAUUACGGUGU
self-splicing fitness (ln) (30 °C): -4.33 ± 0.22
self-splicing fitness (ln) (37 °C): -2.37 ± 0.18

CUUCAGCAAUAUUACGUUCG
self-splicing fitness (ln) (30 °C): -0.922 ± 0.067
self-splicing fitness (ln) (37 °C): -0.372 ± 0.092

ACGCAGCAAUAUUACGCUGC
self-splicing fitness (ln) (30 °C): -3.38 ± 0.43
self-splicing fitness (ln) (37 °C): -3.02 ± 0.29

CCUCAGCAAUAUUACGUCUG
self-splicing fitness (ln) (30 °C): -3.75 ± 0.23
self-splicing fitness (ln) (37 °C): -1.79 ± 0.19

UCGAAGCAAUAUUACGAAAA
self-splicing fitness (ln) (30 °C): -3.1 ± 0.3
self-splicing fitness (ln) (37 °C): -1.54 ± 0.21

CGGGAGCAAUAUUACGCUUG
self-splicing fitness (ln) (37 °C): -2.34 ± 0.31

UUCGAGCAAUAUUACGAGCC
self-splicing fitness (ln) (30 °C): -3.05 ± 0.21
self-splicing fitness (ln) (37 °C): -2.68 ± 0.36

AGGCAGCAAUAUUACGGGUG
self-splicing fitness (ln) (30 °C): -3.64 ± 0.15
self-splicing fitness (ln) (37 °C): -2.29 ± 0.12

CCUGAGCAAUAUUACGCUUA
self-splicing fitness (ln) (30 °C): -2.31 ± 0.24
self-splicing fitness (ln) (37 °C): -2.27 ± 0.39

CCUUAGCAAUAUUACGAUAG
self-splicing fitness (ln) (30 °C): -2.77 ± 0.12
self-splicing fitness (ln) (37 °C): -2.37 ± 0.18

UUCUAGCAAUAUUACGAUGG
self-splicing fitness (ln) (30 °C): -2.49 ± 0.19
self-splicing fitness (ln) (37 °C): -1.02 ± 0.34

ACAUAGCAAUAUUACGAGAA
self-splicing fitness (ln) (30 °C): -2.62 ± 0.29
self-splicing fitness (ln) (37 °C): -2.35 ± 0.25

GGUUAGCAAUAUUACGACGG
self-splicing fitness (ln) (30 °C): -2.32 ± 0.17
self-splicing fitness (ln) (37 °C): -1.33 ± 0.22

CCAGAGCAAUAUUACGCGUC
self-splicing fitness (ln) (30 °C): -3.45 ± 0.24
self-splicing fitness (ln) (37 °C): -3 ± 0.3
